Values belong to the binder of their own block, whether it stands above or below them.
How the values were obtained:
[1] = target: T1, full-length recombinant PARP1 protein (UniProt P09874 1-1014); assay: pull-down; GST-SET8 fusions on glutathione-Sepharose beads, full-length recombinant PARP1 in solution; 1X PBS with 0.1% Triton X-100, 100 µg/ml BSA, 4 °C, 1 h; washes with 1% Triton X-100; western blot with anti-PARP1; details: both partners purified
T1 construct: PARP1, full-length recombinant protein bought from Active Motif; also called purified PARP1; PARP1 recombinant enzyme; source: bought: Active Motif (# 81037)

His-SET8 = target: T2, His-SET8 (UniProt Q9NQR1-2 1-352); assay: EMSA; 2 mM MgCl2; GRB buffer: 20 mM HEPES pH 7.5, 10% glycerol, 25 mM KCl, 0.1 mM EDTA, 1 mM DTT, 2 mM MgCl2, 0.2% NP40; on ice 10-15 min; 6% TBE gel, 0.5x TBE, 4 C; details: protein: recombinant; tags: His; label: Cy3 (end); hairpin, 10 bp stem with AAA loop
T2 sequence: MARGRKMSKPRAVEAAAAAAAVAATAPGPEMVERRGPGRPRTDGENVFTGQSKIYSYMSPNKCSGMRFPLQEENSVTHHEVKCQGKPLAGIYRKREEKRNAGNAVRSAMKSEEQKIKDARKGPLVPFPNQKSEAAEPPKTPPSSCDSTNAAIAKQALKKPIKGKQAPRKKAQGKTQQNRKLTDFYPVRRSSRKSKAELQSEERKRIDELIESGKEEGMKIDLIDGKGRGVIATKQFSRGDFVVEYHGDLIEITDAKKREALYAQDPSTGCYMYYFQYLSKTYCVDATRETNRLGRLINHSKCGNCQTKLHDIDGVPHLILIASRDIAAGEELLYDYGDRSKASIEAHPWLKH

T1 sequence (P09874 whole entry, the tested form may be a part): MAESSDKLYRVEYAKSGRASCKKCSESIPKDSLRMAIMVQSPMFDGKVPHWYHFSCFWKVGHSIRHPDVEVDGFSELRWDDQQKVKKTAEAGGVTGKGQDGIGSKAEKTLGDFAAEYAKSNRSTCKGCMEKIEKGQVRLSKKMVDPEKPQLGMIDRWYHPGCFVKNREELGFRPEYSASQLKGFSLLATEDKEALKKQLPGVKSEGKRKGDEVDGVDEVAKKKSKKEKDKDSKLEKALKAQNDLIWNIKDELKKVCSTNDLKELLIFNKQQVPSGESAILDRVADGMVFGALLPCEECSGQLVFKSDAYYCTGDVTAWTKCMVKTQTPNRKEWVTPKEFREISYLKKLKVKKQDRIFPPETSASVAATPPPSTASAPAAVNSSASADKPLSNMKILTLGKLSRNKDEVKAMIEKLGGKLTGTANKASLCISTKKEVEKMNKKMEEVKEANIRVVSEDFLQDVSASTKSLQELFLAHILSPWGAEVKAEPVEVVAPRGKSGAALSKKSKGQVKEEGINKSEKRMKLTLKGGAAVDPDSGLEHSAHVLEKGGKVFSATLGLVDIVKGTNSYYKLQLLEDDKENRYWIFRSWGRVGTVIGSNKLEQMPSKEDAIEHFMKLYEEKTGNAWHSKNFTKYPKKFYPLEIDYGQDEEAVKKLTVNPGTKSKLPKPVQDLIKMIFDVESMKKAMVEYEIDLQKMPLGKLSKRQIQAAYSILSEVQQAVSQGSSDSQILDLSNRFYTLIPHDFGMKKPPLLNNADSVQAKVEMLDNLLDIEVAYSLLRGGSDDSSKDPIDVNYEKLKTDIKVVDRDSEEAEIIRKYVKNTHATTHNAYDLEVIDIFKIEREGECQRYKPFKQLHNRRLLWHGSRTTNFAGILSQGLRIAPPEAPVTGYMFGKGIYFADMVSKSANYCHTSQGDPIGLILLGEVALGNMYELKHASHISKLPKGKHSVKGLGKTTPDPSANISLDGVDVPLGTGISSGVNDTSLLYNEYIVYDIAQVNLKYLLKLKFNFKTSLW

B1: GST-SET8 N-terminal 1-98 (domain or fragment, UniProt Q9NQR1-2 1-98, looked up)
chain: MARGRKMSKPRAVEAAAAAAAVAATAPGPEMVERRGPGRPRTDGENVFTGQSKIYSYMSPNKCSGMRFPLQEENSVTHHEVKCQGKPLAGIYRKREEK
notes: SET8 (KMT5A) residues 1-98; vector pGEX5X.1; primers in Supplementary File 1; also called N-terminal 1–98 amino acids; source: E. coli ER2566, purified, on glutathione-Sepharose beads
- binding result [1]: binds

B4: EcoRI hairpin oligonucleotide (structured_DNA)
DNA: GGGAATTCCCAAAGGGAATTCCC
- Kd (His-SET8): 1.6 ± 0.6 µM

Now from value to binder:

- binding result [1]: binds
B2: full-length GST fusion SET8 (GST-SET8 FL) (enzyme, UniProt Q9NQR1-2 1-352, looked up)
chain: T2 sequence
notes: SET8 (KMT5A), full length; printed numbering runs to 352 (fragments 157-352, 175-352); vector pGEX5X.1; source: E. coli ER2566, purified, on glutathione-Sepharose beads

- binding result [1]: binds
B3: GST-SET8 disorder domain 80-230 (domain or fragment, UniProt Q9NQR1-2 80-230, looked up)
chain: EVKCQGKPLAGIYRKREEKRNAGNAVRSAMKSEEQKIKDARKGPLVPFPNQKSEAAEPPKTPPSSCDSTNAAIAKQALKKPIKGKQAPRKKAQGKTQQNRKLTDFYPVRRSSRKSKAELQSEERKRIDELIESGKEEGMKIDLIDGKGRGV
notes: SET8 (KMT5A) disorder domain, residues 80-230; printed numbering runs to 352; vector pGEX5X.1; primers in Supplementary File 1; also called GST-SET8 DD; disorder domain (DD); source: E. coli ER2566, purified, on glutathione-Sepharose beads

From publication PMC9700808, “Poly ADP-ribosylation of SET8 leads to aberrant H4K20 methylation in mammalian nuclear genome” (Communications Biology, 2021)
